Test results from patent US12545899B2, “Luciferase enzymes for use with thermostable luciferins in bioluminescent assays” (Promega Corporation, priority 2018, dated 2026).
Substitutions are numbered along the chain they refer to. Numbers in names are those of the source.

B1: MK0139: SEQ ID NO: 107; H244W+S193A+N228D+L305F+S306P+I109V+C38R+F55I+Y108F+A316W+Y339M+T342S+V348I+I240V (protein)
chain: MADKNILYGPEPFYPLEDGTAGEQMFDALSRYAAIPGRIALTNAHTKENVLYEEILKLSCRLAESFKKYGLKQNDTIAVCSENSLQFFLPVIASLYLGIIVAPVNDKFVERELIHSLGIVKPRIVFCSKNTFQKVLNVKSKLKSIETIIILDLNEDLGGYQCLNNFISQNSDSNLDVKKFKPYSFNRDDQVAAIMFSSGTTGLPKGVMLTHKNIVARFSIAKDPTFGDAINPTSAILTVVPFHWGFGMMTTLGYFTCGFRVVLMHTFEEKLFLQSLQDYKVESTLLVPTLMAFLAKSALVEKYDFPHLKEIASGGWPLSKEIGEMVKKRFKLNFVRQGMGLSETTSAILITPKGDAKPGSTGKIVPLHAVKVVDPTTGKILGPNEPGELYFKGPMIMKGYYNNEEATKAIIDNDGWLRSGDIAYYDNDGHFYIVDRLKSLIKYKGYQVAPAEIEGILLQHPYIVDAGVTGIPDEAAGELPAAGVVVQTGKYLNEQIVQDYVASQVSTAKWLRGGVKFLDEIPKGSTGKIDRKVLRQMLEKHTNGHHHHHHHH
B2: MK0147: SEQ ID NO: 113; H244W+S193A+N228D+L305F+S306P+I109V+C38R+F55I+Y108F+A316W+Y339M+T342S+V348I+W510R (protein)
chain: B1 chain with V240I, W510R
B3: MK0146: SEQ ID NO: 112; H244W+S193A+N228D+L305F+S306P+I109V+C38R+F55I+Y108F+A316W+Y339M+T342S+V348I+L437R (protein)
chain: B1 chain with V240I, L437R
B4: MK0141: SEQ ID NO: 108; H244W+S193A+N228D+L305F+S306P+I109V+C38R+F55I+Y108F+A316W+Y339M+T342S+V348I+T284A (protein)
chain: B1 chain with V240I, T284A
B5: MK0144: SEQ ID NO: 110; H244W+S193A+N228D+L305F+S306P+I109V+C38R+F55I+Y108F+A316W+Y339M+T342S+V348I+K353R (protein)
chain: B1 chain with V240I, K353R
B6: MK0142: SEQ ID NO: 109; H244W+S193A+N228D+L305F+S306P+I109V+C38R+F55I+Y108F+A316W+Y339M+T342S+V348I+T289R (protein)
chain: B1 chain with V240I, T289R
B7: MK0145: SEQ ID NO: 111; H244W+S193A+N228D+L305F+S306P+I109V+C38R+F55I+Y108F+A316W+Y339M+T342S+V348I+D435G (protein)
chain: B1 chain with V240I, D435G
B8: MK0148: SEQ ID NO: 114; H244W+S193A+N228D+L305F+S306P+I109V+C38R+F55I+Y108F+A316W+Y339M+T342S+V348I+C257R+T289S+S313T+D435G+L437R+W510R (protein)
chain: B1 chain with V240I, S313T, D435G, L437R
B9: MK0152: SEQ ID NO: 117; H244W+S193A+N228D+L305F+S306P+I109V+C38R+F55I+Y108F+A316W+Y339M+T342S+V348I+C257R+K353R+L437R+W510R (protein)
chain: B1 chain with V240I, T289S, K353R, D435G, W510R
B10: MK0151: SEQ ID NO: 116; H244W+S193A+N228D+L305F+S306P+I109V+C38R+F55I+Y108F+A316W+Y339M+T342S+V348I+S313T+D435G+L437R (protein)
chain: B1 chain with V240I, C257R, K353R, L437R, W510R
B11: MK0149: SEQ ID NO: 115; H244W+S193A+N228D+L305F+S306P+I109V+C38R+F55I+Y108F+A316W+Y339M+T342S+V348I+C257R+T284A+T289S+L437R (protein)
chain: B1 chain with V240I, C257R, T284A, T289S, L437R

Assay: Differential scanning fluorimetry (DSF) analysis
Format: physicochemical
Conditions: Table 12
How it was run: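 Enzymes mixed with Sypro Orange at 5× final, heated 30–95° C at 1° C per minute with fluorescence read every 60 s. Storage buffer 50 mM HEPES pH 7.5, 100 mM NaCl, 2 mM EDTA, or for luciferase variants 20 mM HEPES pH 7.5, 200 mM NaCl, 1 mM EDTA; per-minute fluorescence change plotted against temperature.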

| Molecule | DSF Tm (° C.) |
| --- | --- |
| B1 | 72 °C |
| B2 | 71 °C |
| B3 | 72 °C |
| B4 | 73 °C |
| B5 | 73 °C |
| B6 | 71 °C |
| B7 | 72 °C |

Assay: Luminescence at 1 mM D/L-luciferin (Table 11)
Format: biochemical
Conditions: 1 mM substrate; 1 mM ATP; BrightGlo Buffer
Excerpt: (§1) Tables 10 and 11 include representative results of kinetic analysis of the thermostable variants with D/L luciferin, CS0333, and CS0280. […] MK0135 and MK0137 have amino acid substitutions that improve thermostability relative to MK0133 and MK0134, respectively, while retaining activity on the luciferin analogs CS0333 and CS0280.

| Molecule | Vmax (RLU) D/L-luciferin BrightGlo Buffer |
| --- | --- |
| B8 | 1,227,230 RLU |
| B9 | 954,983 RLU |
| B10 | 1,074,780 RLU |
| B11 | 416,355 RLU |

Same assay, conditions: 1 mM substrate; 1 mM ATP; Detection Reagent Buffer

| Molecule | Vmax (RLU) D/L-luciferin Detection Reagent Buffer |
| --- | --- |
| B8 | 515,688 RLU |
| B9 | 103,199 RLU |
| B10 | 249,347 RLU |
| B11 | 52,341 RLU |

Assay: Luminescence at 1 mM CS0333 (Table 11)
Format: biochemical
Conditions: 1 mM substrate; 1 mM ATP; BrightGlo Buffer
Excerpt: as §1

| Molecule | Vmax (RLU) CS0333 BrightGlo Buffer |
| --- | --- |
| B8 | 3,525,730 RLU |
| B9 | 405,859 RLU |
| B10 | 8,608,150 RLU |
| B11 | 1,433,640 RLU |

Same assay, conditions: 1 mM substrate; 1 mM ATP; Detection Reagent Buffer

| Molecule | Vmax (RLU) CS0333 Detection Reagent Buffer |
| --- | --- |
| B8 | 2,139,740 RLU |
| B9 | 175,261 RLU |
| B10 | 4,805,980 RLU |
| B11 | 1,270,240 RLU |

Assay: Luminescence at 1 mM CS0280 (Table 11)
Format: biochemical
Conditions: 1 mM substrate; 1 mM ATP; BrightGlo Buffer
Excerpt: as §1

| Molecule | Vmax (RLU) CS0280 BrightGlo Buffer |
| --- | --- |
| B8 | 620,182 RLU |
| B9 | 484,293 RLU |
| B10 | 1,490,130 RLU |
| B11 | 1,368,890 RLU |

Same assay, conditions: 1 mM substrate; 1 mM ATP; Detection Reagent Buffer

| Molecule | Vmax (RLU) CS0280 Detection Reagent Buffer |
| --- | --- |
| B8 | 21,505 RLU |
| B9 | 11,418 RLU |
| B10 | 76,615 RLU |
| B11 | 57,404 RLU |

Assay: Kinetic analysis of thermostable variants with 400 fM-4 mM CS0280 (Table 12)
Format: biochemical
Conditions: BrightGlo Buffer, 4 mM ATP
Method: Table 12 includes representative results of kinetic analysis of the thermostable variants with 400 fM-4 mM CS0280. This panel of enzyme variants have a combination of improved thermostability and brightness with CS0280 relative to their progenitor enzyme variants MK134 and MK137.

| Molecule | Km | Vmax (RLU) |
| --- | --- | --- |
| B1 | 15.7 µM | 764,421 RLU |
| B2 | 7.12 µM | 1,101,042 RLU |
| B3 | 4.21 µM | 1,114,607 RLU |
| B4 | 7.12 µM | 1,701,019 RLU |
| B5 | 10.5 µM | 1,586,262 RLU |
| B6 | 4.98 µM | 1,409,786 RLU |
| B7 | 11.9 µM | 1,193,838 RLU |

Same assay, conditions: Detection Reagent Buffer, 4 mM ATP

| Molecule | Km | Vmax (RLU) |
| --- | --- | --- |
| B1 | 128 µM | 35,633 RLU |
| B2 | 26.1 µM | 62,099 RLU |
| B3 | 33.3 µM | 55,964 RLU |
| B4 | 40.6 µM | 89,238 RLU |
| B5 | 35.4 µM | 43,744 RLU |
| B6 | 32.3 µM | 70,257 RLU |
| B7 | 50.6 µM | 66,768 RLU |

Assay: Kinetic analysis of thermostable variants with D/L-luciferin (Tables 13, 14)
Format: biochemical
Conditions: BrightGlo Buffer, 2 mM ATP
Excerpt: (§2) Tables 13 and 14 include representative results of kinetic analysis of the thermostable variants with D/L luciferin, CS0333, and CS0280. The panel of enzyme variants highlight amino acid substitutions that further improve upon MK0137 in maximum luminescence (Vmax) or Km in different buffers with the different substrates tested (D/L-luciferin, CS0333, and CS0280). In particular, enzyme variants MK0151 and MK153 show improvements relative to MK0137 across multiple buffers with multiple substrates.

| Molecule | Km | Vmax (RLU) |
| --- | --- | --- |
| B8 | 0.0737 µM | 1,993,509 RLU |
| B9 | 0.0583 µM | 1,055,203 RLU |
| B10 | 0.0834 µM | 924,955 RLU |
| B7 | 0.136 µM | 334,536 RLU |
| B11 | 0.0482 µM | 351,895 RLU |

Same assay, conditions: Detection Reagent Buffer, 2 mM ATP

| Molecule | Km | Vmax (RLU) |
| --- | --- | --- |
| B8 | 0.21 µM | 332,703 RLU |
| B9 | 0.395 µM | 60,231 RLU |
| B10 | 0.265 µM | 123,752 RLU |
| B7 | 0.227 µM | 41,310 RLU |
| B11 | 0.26 µM | 33,641 RLU |

Assay: Kinetic analysis of thermostable variants with CS0333 (Tables 13, 14)
Format: biochemical
Conditions: BrightGlo Buffer, 2 mM ATP
Excerpt: as §2

| Molecule | Km | Vmax (RLU) |
| --- | --- | --- |
| B8 | 8.44 µM | 2,895,248 RLU |
| B9 | 4.09 µM | 519,457 RLU |
| B10 | 6.45 µM | 4,586,290 RLU |
| B7 | 6.83 µM | 2,891,897 RLU |
| B11 | 4.89 µM | 1,336,251 RLU |

Same assay, conditions: Detection Reagent Buffer, 2 mM ATP

| Molecule | Km | Vmax (RLU) |
| --- | --- | --- |
| B8 | 48.4 µM | 543,865 RLU |
| B9 | 56.8 µM | 49,798 RLU |
| B10 | 37.6 µM | 727,712 RLU |
| B7 | 21.5 µM | 591,292 RLU |
| B11 | 48.4 µM | 353,432 RLU |

Assay: Kinetic analysis of thermostable variants with CS0280 (Tables 13, 14)
Format: biochemical
Conditions: BrightGlo Buffer, 2 mM ATP
Excerpt: as §2

| Molecule | Km | Vmax (RLU) |
| --- | --- | --- |
| B8 | 8.94 µM | 359,383 RLU |
| B9 | 5.74 µM | 330,383 RLU |
| B10 | 4.88 µM | 534,004 RLU |
| B7 | 5.72 µM | 368,599 RLU |
| B11 | 5.6 µM | 652,464 RLU |

Same assay, conditions: Detection Reagent Buffer, 2 mM ATP

| Molecule | Km | Vmax (RLU) |
| --- | --- | --- |
| B8 | 619 µM | 26,247 RLU |
| B9 | 848 µM | 10,047 RLU |
| B10 | 632 µM | 58,187 RLU |
| B7 | 391 µM | 38,794 RLU |
| B11 | 678 µM | 44,058 RLU |
